The target of assay [1] is T1, human ASGR-1 (wild type) (human, UniProt P07306 1-291).
T1 construct: also called wt ASGR1; huASGR-1
T1 sequence: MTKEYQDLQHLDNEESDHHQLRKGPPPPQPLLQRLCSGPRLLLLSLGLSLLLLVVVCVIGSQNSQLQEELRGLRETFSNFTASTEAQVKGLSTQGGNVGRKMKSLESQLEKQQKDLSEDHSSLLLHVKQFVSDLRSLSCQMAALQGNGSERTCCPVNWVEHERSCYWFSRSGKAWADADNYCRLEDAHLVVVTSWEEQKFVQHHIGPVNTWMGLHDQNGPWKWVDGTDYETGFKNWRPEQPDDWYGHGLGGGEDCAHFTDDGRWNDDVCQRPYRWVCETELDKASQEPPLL
As to the kind of experiment: flow cytometry, CHO-S:huASGR-1 cells, 11-point titration. How it is done:
CHO—S stable high-expressing cell line were developed for both human ASGR-1 as well as mouse ASGR-1. A typical 384 well plate multiplex flow cytometery-based cell binding method is described as followed: Parental CHO—S cells and CHO—S:huASGR-1 cells were respectively labeled using a CellTrace CFSE Cell Proliferation Kit (ThermoFisher Catalog #C34554) and CellTrace Violet Cell Proliferation Kit (ThermoFisher Catalog#C34557) CHO—S:muASGR-1 were not labeled. 20 ul of cells at 4C were added to duplicate wells of the 384 well plate. The cells were equally mixed from all three cell lines (30K cells/well). Then 20 ul of the ASGR-1 antibodies (either purified from hybridoma supernatants or made recombinantly) were added in an 11-point dose response using a 1:2 fold serial dilution starting at 100 nM. The cells and antibodies were incubated for 30 min at 4C and then spun down and washed twice with FACS buffer containing 1 mM CaCl2. 30 ul of anti-hulgG-APC secondary antibodies were then added at a 1:1000 dilution) for 30 min at 4C and then washed once with the same buffer. 60 ul of PI (1:1000) was added and then the cells were read by a core flow cytometry facility. The cells were gated first for live cells, then for single cells and finally for the cell dyes to separate the mixed cells into the three different cell populations. Histograms of signal vs count representing the binding profile of each antibody at each antibody concentration were automatically analyzed for the median of the binding signal and then a binding graph was made with log 10 antibody concentration in nM on the X axis with […] from the duplicate wells on the Y-axis. The binding curves were fit with a standard four parameter sigmoidal binding curve and EC50's reported for all graphs with full curves.

The target in assay [2] is T2, human ASGR-1 mutant construct H203 (human, UniProt P07306 1-291).
T2 construct: Arg/Glu scanning: non-arginine residues were changed to arginine; Transiently expressed on CHO-S cells
T2 sequence: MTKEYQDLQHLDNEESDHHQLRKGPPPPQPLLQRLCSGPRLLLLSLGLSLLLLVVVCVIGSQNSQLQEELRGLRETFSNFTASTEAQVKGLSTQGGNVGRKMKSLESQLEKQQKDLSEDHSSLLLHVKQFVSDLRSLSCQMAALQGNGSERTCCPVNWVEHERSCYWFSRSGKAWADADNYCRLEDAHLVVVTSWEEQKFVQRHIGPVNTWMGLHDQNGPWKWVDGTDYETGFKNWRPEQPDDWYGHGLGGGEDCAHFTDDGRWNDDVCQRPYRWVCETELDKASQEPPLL
As to the kind of experiment: FACS, transfected CHO-S cells, mAb 5 ug/ml. Summed up: (§1)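 Transiently transfected CHO-S cells expressing wild-type or mutant hASGR-1 incubated with antibody at 5 ug/ml, 1 h at 4 °C; bound antibody detected by Alexa Fluor 647 anti-Fc plus 7-AAD, by flow cytometry. Binding normalized to expression using an unaffected antibody (65C12), then to wild type; hits defined as >3× IQR above third quartile.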

Assay [3] deals with T1, human ASGR-1 (wild type). As to the kind of experiment: FACS, transfected CHO-S cells, mAb 5 ug/ml. The essentials: as §1
Assay [4] deals with T2, human ASGR-1 mutant construct H203. As to the kind of experiment: FACS ratio: H203 normalized value / wt normalized value. Summed up: as §1
The target is the same in assay [5]. The assay is described as follows: FACS ratio: 65C12 geomean / this mAb geomean. Summed up: (§2)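 CHO-S cells transiently expressing wild-type or point-mutant hASGR-1 were stained with antibody at 5 ug/ml for 1 h at 4 °C. Bound antibody was detected by Fc-specific Alexa 647 secondary plus 7-AAD and read by flow cytometry. Ratio is 65C12 geomean divided by test mAb geomean, normalizing for expression.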

In assay [6] the target is T1, human ASGR-1 (wild type). As to the kind of experiment: FACS ratio: 65C12 geomean / this mAb geomean. The essentials:
as §2

In assay [7] the target is T3, soluble human ASGR-1 carbohydrate binding domain (CBD; amino acid residues 154-281; N-terminal 6xHis tag) (human, UniProt P07306 154-281).
T3 construct: also called ASGR-1 CBD
T3 sequence: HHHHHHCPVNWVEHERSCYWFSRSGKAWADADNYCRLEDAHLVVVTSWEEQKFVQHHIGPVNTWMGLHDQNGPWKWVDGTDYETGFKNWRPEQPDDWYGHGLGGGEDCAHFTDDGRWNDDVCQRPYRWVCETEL
As to the kind of experiment: Octet BLI, mAb on AR2G tips, 1:1 fit. The text has this: To quantitate the binding affinity of specific antibodies for ASGR-1 (either purified from hybridoma supernatants or made recombinantly), association and dissociation rates can be measured using a ForteBio Octet instrument. […] Experimental kinetic results were globally fit to a 1:1 binding model in order to determine the association and dissociation rate constants as well as the equilibrium dissociation constant. Association and dissociation times were chosen to ensure that curvature was present during association curves and measured dissociation levels dropped at least 5% from starting levels. All Octet buffers contained 10 mM Tris (pH7.5), 150 mM NaCl, 1 mM CaCl₂), 0.10 mg/ml BSA and 0.13% Triton X-100. Octet assays were run at 27° C. Because this assay only measures binding to the ASGR-1 CBD, antibodies that recognize epitopes partially or entirely outside the CBD and/or recognize ASGR-1 in the context of a native ASGR complex, for example, as could occur on cell membranes, may not score as positive in this assay.

B1: 54E9 (antibody, V domains shown)
VH: QVQLVQSGAEVKKPGASVKVSCKASGYTFNSYGISWVRLAPGQGLEWMGWISAYNGNTKNAQKLQGRVTMTTDTSTSTAYMELRSLRSDDTAVYYCARHDFWSGYYKGMDVWGQGTTVTVSS
VL: not shown
notes: mAb
B1 showed an EC50 in the assay with human ASGR-1 (wild type) [1] of 5 nM. In addition, the results for the “FACS Binding Geomean” value (in assay [2]; in the assay with human ASGR-1 (wild type) [3]) were 15300 and 38600, respectively. For the same molecule, in assay [4], the “Normalization to wt ASGR1 Binding” value came out at 1.16. Also, the “Expression Normalization to mAb 65C12” value in assay [5] amounted to 1.68; with human ASGR-1 (wild type) [6] it was 1.45.

B2: 198D2 (antibody, V domains shown)
VH: QVQLVESGGGVVQPGRSLRLSCAASGFTFRSYGMHWVRQAPGKGLEWVAVIIYDGSYKYYADSVKGRFTISRDNSKNTLYLQMNSLRAEDTAVYYCARTYSGGMDVWGQGTTVTVSS
VL: QSVLTQPPSVSAAPGQKVTISCSGSSSNIGSNYVSWYQQLPGTAPKVLIYDNNKRPSGIPDRFSGSKSGTSATLGITGLQTGDEADYYCGTWDSRLNVGVFGGGTKLTVL
notes: mAb
For B2, a half-maximal response in the assay with human ASGR-1 (wild type) [1] (EC50) required 0.14 nM. For the same molecule, the “FACS Binding Geomean” value in assay [2] is 7140; in the assay with human ASGR-1 (wild type) [3] it was 16900. For the same molecule, the “Normalization to wt ASGR1 Binding” value in assay [4] was found to be 1.09. Besides, the entries for the “Expression Normalization to mAb 65C12” value (in assay [5]; with human ASGR-1 (wild type) [6]) were 3.61 and 3.32, respectively.

B3: 4H6 (antibody, V domains shown)
VH: QVQLVQSGAEVKKPGASVKVSCKASGYTFTDYYLHWVRQAPGQGLEWMGWIHPNSGGTNYAQKFQGRVTMTRDTSISTAYMGLSSLRSDDTAVYYCARDGTSSFDYWGQGTLVTVSS
VL: DIQMTQSPSSVSASVGDRVTITCRASQGISRWLAWYQQKPGKAPKLLIYGASSLQSGVPSRFSGSGSGTDFTLTISSLQPEDFAIYYCQQANSFPFTFGPGTKVDIK
notes: mAb
The molecule B3 had an equilibrium dissociation constant (Kd) in assay [7] of 4.8 nM. In the assay with human ASGR-1 (wild type) [1], this molecule had a concentration giving a half-maximal response (EC50) of 1.7 nM.

B4: 12D2 (antibody, V domains shown)
VH: EVQLVESGGGLVKPGGSLRLSCAASGFTFSSYSMNWVRQAPGKGLEWVSSISSSSSYIYYADSVKGRFTISRDNAKNSLYLQMNSLRAEDTAVYYCARLGDYWGQGTLVAVSS
VL: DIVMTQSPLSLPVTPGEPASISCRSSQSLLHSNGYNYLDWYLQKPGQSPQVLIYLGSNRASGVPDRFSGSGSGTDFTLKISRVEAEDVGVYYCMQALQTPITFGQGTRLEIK
notes: mAb
Molecule B4 gave an EC50 with human ASGR-1 (wild type) [1] of 3.2 nM.

B5: 202A3 (antibody, V domains shown)
VH: QVQLEQSGAEVKKPGASVKVSCKASGYTFTSYDINWVRQATGQGLEWLGWMNPKRGNTGYAQKFQGRVTMTRNTSISTAHMELSSLRSEDTAVYYCARGRYSREDYYYYYDMDVWGQGTTVTVSS
VL: DIQMSQSPSSLSASVGDRVTITCRASQGIRNDLGWYQQKPGKAPKRLICAASRLQSGVPSRFSGSGSGTEFTLTISSLQPEDFAIYYCLQHHDYPFTFGPGTKVDIK
notes: mAb
In the case of B5, a half-maximal effect with human ASGR-1 (wild type) [1] (EC50) was put at 0.8 nM. Also, the results for the “FACS Binding Geomean” value (in assay [2]; with human ASGR-1 (wild type) [3]) were 12500 and 24800, respectively. The “Normalization to wt ASGR1 Binding” value in assay [4] came out at 0.913. Also, the “Expression Normalization to mAb 65C12” value was determined as 2.06 in assay [5] and 2.26 with human ASGR-1 (wild type) [6].

B6: 7F4 (antibody, V domains shown)
VH: QLQLQESGPGLVKPSETLSLTCTVSGGSISRSSYYWGWIRQPPGKGLEWIGNIYYSGATYYNPSLKSRVTISVDTSTNQFSLKLSSVTAADTAVYYCARHSGSWSLDYWGQGTLVTVSS
VL: DIQMTQSPSSLSASVGDRVTITCRTSQGIRNDLGWYQQKPGKAPKRLIYAASNLQSGVPSRFSGSGSGTEFTLTISSLQPEDFATYYCLQHSAYPLTFGGGTKVEIK
notes: mAb
On to B6, for which binding in assay [7] was characterised by a dissociation constant (Kd) of 1.2 nM. Also, it took 5.4 nM to reach a half-maximal effect with human ASGR-1 (wild type) [1] (EC50).

B7: 4B1 (antibody, V domains shown)
VH: QVQLQESGPGLVKPSETLSLTCSVSGDSISSYSWSWIRQPAGKGLEWIGRIYTSGSTNYIPSLKSRITMSVDTSKKQFSLKLSSVTAADTAVYYCARDLKSSGCLFFDYWGQGTLVTVSS
VL: DIQMTQSPSSLSASVGDRVTITCRASHTIRTYLNWYQQKPGKAPKLLIYAASSLQSGVPSRINGSGSGTDFTLTITNLQPEDFATYYCQQSYNISFTFGPGTKVDIK
notes: mAb
With B7, a half-maximal effect in the assay with human ASGR-1 (wild type) [1] (EC50) was put at 4.1 nM.

The record behind these values is US20190248902A1 (published 2019).
